Experimental data reported in paper PMC4395007.

Biological target: BG505 SOSIP.664 gp140 trimer (HIV-1) (UniProt Q2N0S6)
Assay: negative-stain electron microscopy

With CAP256-VRC26.09 Fab the stoichiometry N (Fab per trimer) was 1.
